Test results published in the DeepSol protein solubility set.

assay: soluble on expression in E. coli; label from the status in PepcDB or PDB records

Row | Sequence | soluble on expression in E. coli
1 | MSLTTIKEIAQKSGYSPATVSRLLNNDPNLSITADTKNKILEIANKLGYWKDHQEKEIKPTIALLYRTNHKEQLQDEYFTSLKQALVETVKQKSMKMKTFYNVKDLIENASLFQGFIGVGAAPIENAELLELHKVLPNGVFVDTNPAPELFDSIRPNLSLTVKNAIDLFIKNDCKTIGFIGGVGPKHDHIQENDPRAVAFAEYMKVRNKDTNYMFVSGPFSVENGYELGKEVVKECEDNLPDAFLIASDTLSVGVLQAFNEENVNVPKDTAILSINNSNVVKYVSPPLSSYNINQQEMIDLALTMLTNLIIQPDRAHIDVNMNTDLVVRKSFVPKGEGHHHHHH | soluble
2 | MSLTTYEMARILEQLDESPEKVMYGKLLNELGNQSSERIRSAAKQVPLTVLRDLVYQFQQVIESRKGEQVETMAKELAKQGISAEELLNYLQKR | not soluble
3 | MSLVDLVTEAKSSGEGVTSPYSRTEHCENIHEYRCDTRVGVIGIDVSKEHLVTSKGRVRKFTNNEKGYEEILTMKPNIIVIEPTGVYSTRPCQYFKERGVKVLLVSLAMERKGRKGKENRFLRRRKTEGHHHHHH | not soluble
4 | MSLVKTRILIISDTHGSKPKPKSDNSPSTEDELNQEDVTKVITGWRDPLPEADVVIHCGDLTKRTTIPEFEQTFSVLRSIKAPLKLAIAGNHDTALDEEHWVNKYGGSKETIDKVKKIVREAETDGVKYLPEGVHEFTLANGALLKVYASPWTPAYGGWAFQYKNGHDFNIPPGMDVAVTHGPPRGILDFAGRAGTHAGCPQLLAAVARAKPKIHCFGHIHEAWGMHHVTWDGDEIDLARSQYRGLKGLRPNRVTQGKETARMTREKLIEMSKQRAVRLDLTQGINRSIAGKQTLFVNAAIMSIRYRPVQLPWIIDVDLKAREGHHHHHH | soluble
5 | MSLVKYGVVGAGYFGAELARYMQKNDGAEITLLYDPDNAEAIAEELGAKVASSLDELVSSDEVDCVIVATPNNLHKEPVIKAAQHGKNVFCEKPIALSYQDCREMVDACKENNVTFMAGHIMNFFNGVHHAKELINQGVIGDVLYCHTARNGWEEQQPSVSWKKIREKSGGHLYHHIHELDCVQFLMGGMPETVTMTGGNVAHEGEHFGDEDDMIFVNMEFSNKRFALLEWGSAYRWGEHYVLIQGSKGAIRLDLFNCKGTLKLDGQESYFLIHESQEEDDDRTRIYHSTEMDGAIAYGKPGKRTPLWLSSVIDKEMRYLHEIMQGAPVSEEFAKLLTGEAALEAIATADACTQSMFEDRKVKLSEIVKEGHHHHHH | soluble
6 | MSLVPRIAVLGCGHWGGNHIRTLQSLRALAAVSDVDSDRAASFASLYGVDAVAPDDLFTRRDIDALVLALPPQFHTENVLRAVKNGKDVLVEKPIALDVVDAECQVQAAREYGRILMVGHILRFHPAFEKISELVENGELGDVCYIYSHRLGFGKFHTQSDALWDLAPHDLSMILALTGCEPSEVRGEGAAVIDQCSDFAHIHMAFPNGIRSHLFASRLSPYRERRLMVVGTKAMLVFDDMEPWSRKVAFHPFAVWKENQEWAFSTDELSYINIYEDLPLTCELKHFLHCIETRQSPRTNGDDALAILRILTAAGVNYQKEGHHHHHH | soluble
7 | MSLVSLPGLPAMISEISKRNNLPTTAVEEALREALLKGYERFRRSQLMGHQFPEEYFNNFEVELDTEEEGFRVLSTKRIVEEVENSDQQISLKEVLEVAEEAQLGDEVVLDVTPEQKDFGRMAAIQTKQVLLQKLRDQQRKIIQEEFQDLEGTVLNARALRFERQSIIVAVQSSFGQPEVEAELPKREQLPNDNYRANSTFRVYLKRVREGSQRGPQLVVSRAAAGLVVDLFSVEVPEIEEEVVRIVAVAREAKPPSPSVGPRTKIAVDTLERDVDPVGACIGARGSRIHAVVNELRGEKIDVIRWSPDPATYIAQALSPARVDQVYLIHAEERHALVIVAEDQLSLAIGKEGQNVRLAARLTGWKIDIKDPETYARDKEAIEQSILERAAASAQARAEREAAEQEAQAKLEAEMAALEAEEAEELEETPEAIAEVEEEVEEWDQDQGPELGEEEELSLEHHHHHH | soluble
8 | MSLVYTEVPKSVATFMETITEKCGEAHQDWAKNFQAAFANTLLTTVKRQEDGTTFLLTGDIPAMWLRDSTAQVRPYLVIAKEDEDLAQMIAGLVKRQFRYICIDPYANAFNETDNHAGHQTDKTEMNGWIWERKYEIDSLCYPVQLAYLLYKNTGMTEQFNSDFVEGVKKILNVFTTEQDHAQSPYLFERDTWRQEDTLVEAGKGTPVGKTGMTWSGFRPSDDACQYGYLVPSNMFAVVILGYIQEIFSDVLEDATIGAIAKKLQEEIEEGIQTFGRTKNQNNETIYAYEVDGLGNASVMDDSNVPNLVAAPYLGYCSTEDEQYLTTRQTLLSKENPYFYEGKYAKGIGSSHTPENYVWPIALAMEGMTTKDKAEKERILDLLVATDAGTHLMHEGFDVDNPENYTREWFSWANMMFCELVMDYFDIRVEKEGGSHHHHHH | soluble
9 | MSLWMYIHKIMKLSYKRVILTRELEDIKKDKPLFEREGFKVLELPLIQTKVLEFNLPDEEFDYIVFQSKKAVKIFLGKVNLKGNKKIVAVGKKTAEELEKLGYKADFIPENESAKGLIELFKRLPKGKVLIPRSKIGRTELIKFLKETSFEVFALDVYTTEYVFYTREELLEKLNKGDFIIFYSPSAVKAFFANLQMHKIPKDSLSLKFVAIGKTTKEELQKHSVKNVITSERPSTEDIVKKLKELARDLQKEGHHHHHH | soluble
10 | MSLYLMPKQDEIALLKQEEETVKATLRIKANKVAVLPQIQAQLDELKERYDFLLRQLPVQKELASMLASVNQLGLDSSLTFTRIDWGERESQEFLYRLPLNIELTGSYHDIGDFSQAIAKLPRIINFDDVDWQRVSQESSTLHFRVRAYTYQFKQEVDDEKEGHHHHHH | not soluble
11 | MSLYRDSKRKIIRDLQKQDIQYVEYGDTRTLIIPTDKYFMFSSPRLNEICYPGLNNVIRLLNFYPQSTIYVAGFTDNVGSRSHKRKLSQAQAETMMTFLWANGIAAKRLKAEGYGDKNAISDNAIIHGSAQNRRIEIQWFTSPAQPPQPQMAYVKEGHHHHHH | soluble
12 | MSLYRIDFNKLRFLICDDNPHMRRILRTLLHSFGTREVYEAEDGATALEMYSHYSPDILITDWEMPIFDGLELAQMIRQPEAKGNPYAPIIMLTAHSEKRRVTLARDAGVTEFLAKPISSKGLYQRILNVVASPREGHHHHHH | not soluble
13 | MSLYTFKELKRATKQDTVSLPKLKVALLGDTATQLLATAIKGEGILRNYNIELWEAEYNQVERQIMDPTSDYYQFEPDYTIIFHSTHKLLEKHSLVNSDLQNKLADDRLDFVRLLCEQGIGRVIYYNYPEIEDTIWGSYATKVQSSFTYQLTKLNYELMNISQAYPNFFICNLAGISAKYGRNFMFDSSVYVNTEIILSLDALPIISSRTIDIIAAIQGKFKKCLILDLDNTIWGGVVGDDGWENIQVGHGLGIGKAFTEFQEWVKKLKNRGIIIAVCSKNNEGKAKEPFERNPEMVLKLDDIAVFVANWENKADNIRTIQRTLNIGFDSMVFLDDNPFERNMVREHVPGVTVPELPEDPGDYLEYLYTLNLFETASFSEDDKDRTKQYQIEAKRVSLQQSFTNEAEFLKSLDMVSEVKGFDKFNTPRVAQLSQRSNQFNLRTVRYTEAEIAAIESDLHYATFSFTLADRFGDNGLICVIILEKQDTETLFINTWFMSCRVLKRGMENFTLNTLVDYARSNGFKRFIGEYLPSAKNQMVEEHYPHLGFSKMEGGDNAARYVLDVETYEEKECYITKKEGHHHHHH | soluble
14 | MSLYVSKLFTSQQWRELKLISYVTENADAIGVKDKELSKALNISMLTLQTCLTNMQFMKEVGGITYKNGYITIWYHQHCGLQEVYQKALRHSQSFKLLETLFFRDFNSLEELAEELFVSLSTLKRLIKKTNAYLMHTFGITILTSPVQVSGDEHQIRLFYLKYFSEAYKISEWPFGEILNLKNCERLLSLMIKEVDVRVNFTLFQHLKILSSVNLIRYYKGHSAVYDNKKTSQRFSQLIQSSLEFQDLSRLFHLKFGLYLDETTIAEMFSNHVNDQLEIGYAFDSIKQDSPTGCRKVTNWVHLLDELEIRLNLSVTNKYEVAVILHNTTVLKEEDITANYLFFDYKKSYLNFYKQEHPHLYKAFVAGVEKLMRSEKEPISTELTNQLIYAFFITWENSFLKVNQKDEKIRLLVIERSFNSVGNFLKKYVGEFFSITNFNELDALTIDLEEIEKQYDVIVTDVMVGKSEELEIFFFHKMIPEAIIDKLNAFLTSALQQEGHHHHHH | soluble
15 | MSMLLGDHPELRSRAREIASLAARVVEQVNSMPAGEQKRLLSEQYPELARFEEQREKGDKGLPPLPGAVEGRVKLRFAPNPDFVIHMGNARPAIVNHEYARMYKGRMVLRFEDTDPRTKTPLREAYDLIRQDLKWLGVSWDEEYIQSLRMEVFYSVARRAIERGCAYVDNCGREGKELLSRGEYCPTRDLGPEDNLELFEKMLEGEFYEGEAVVRMKTDPRHPNPSLRDWVAMRIIDTEKHPHPLVGSRYLVWPTYNFAVSVDDHMMEITHVLRGKEHQLNTEKQLAVYRCMGWRPPYFIHFGRLKLEGFILSKSKIRKLLEERPGEFMGYDDPRFGTIAGLRRRGVLAEAIRQIILEVGVKPTDATISWANLAAANRKLLDERADRIMYVEDPVEMEVELAQVECRAAEIPFHPSRPQRKRRITLCTGDKVLLTREDAVEGRQLRLMGLSNFTVSQGILREVDPSLEYARRMKLPIVQWVKKGGEASVEVLEPVELELRRHQGYAEDAIRGYGVDSRLQFVRYGFVRVDSVEDGVYRVIYTHK | soluble
16 | MSMMDKTVLYFGLVEISFDVPDFIFQKIKEQNNKIRYYSKSINILGSVKFINSNQQFIEYDGNGNILVYGRLKYFKEGISLYYIGEYLAECLLIEHSDTLLIHAAAVYNPLSGHSILLLGDKGAGKTTVAIRLCIEHGYHLIGNDQVIFGSNSGILLTYAGTSFFKIRRTAVLSDNLLFKLFSKFFNRSLQFNKASWDDKISIFPKELGIRTCNFSTEISKIYYIKTDKKEKQIYHSIWSDSLASLYLNELLGRHISGQVACFQSDNGKYFSTMPLINYEKNNRVREQIVKGIFAKQKLFKITAATPAKIAEAIIENVKKNS | not soluble
17 | MSMPATSTKTTKLATSLIDEYALLGWRAMLTEVNLSPKPGLVDRINCGAHKDMALEDFHRSALAIQGWLPRFIEFGACSAEMAPEAVLHGLRPIGMACEGDMFRATAGVNTHKGSIFSLGLLCAAIGRLLQLNQPVTPTTVCSTAASFCRGLTDRELRTNNSQLTAGQRLYQQLGLTGARGEAEAGYPLVINHALPHYLTLLDQGLDPELALLDTLLLLMAINGDTNVASRGGEGGLRWLQREAQTLLQKGGIRTPADLDYLRQFDRECIERNLSPGGSADLLILTWFLAQI | not soluble
18 | MSNAYEEYMRQMVIPMRQELVRSGFEELTTEEAVTEFMENTSGTTLVVVNSVCGCAAGLARPSAGQAVVRAEKQPDHLVTVFAGQDKDATAKMREYFGEIPPSSPSMALLKGKEVVHFIHRHEIEGATMDEIITNLEQAFEKNC | soluble
19 | MSNDFTQAQAPPWRYGFLNLMRRVDVQLCTVPAGNTWQPRMEKFRLGQTPALTFAPREIASVGWQEGRLHISLYSLVLWGPNGPLPLHYTELARNRTESRR | not soluble
20 | MSNGRAVNGFLLDITGVLYNSIYKSDGVAVPKSAEAVNFLYQHSKVKFLSNAKGNSNRNVARRLQRLGINVREEDVITPAPVVAQYCRENKLRPHLFVRDDVLEYFDGIDTSSPNCVVMGEVEEGFSFDRINRAFRILIDMPKPLLITMGNGKFFQRVDGPCIDVGAFAAALKFSTNCEVLNIGKPSRFYFEQGMNALGMKPEEIVMVGDDLMSDVGGAQACGMRGVQVRTGKWRPDFEKMPVTPDLTADCLYDAVKLIADNGFRL | not soluble
